Publication PMC549075, “HIV-1 Tat protein enhances Microtubule polymerization” (Retrovirology, 2005)

Assays:
Lamb brain tubulin [1] = molecular target: Lamb brain tubulin (lamb); assay: cell-based or functional assay
Lamb brain tubulin [2] = molecular target: Lamb brain tubulin (lamb); assay: cell-based or functional assay; remark: listed apart in the source

B1: HIV-1 Tat protein, HxB2 strain (natural protein)
chain: MEPVDPRLEPWKHPGSQPKTACTNCYCKKCCFHCQVCFITKALGISYGRKKRRQRRRAHQNSQTHQASLSKQPTSQPRGDPTGPKE
- fold increase of the turbidity plateau over tubulin alone, 4 μM and 8 μM Tat with 15 μM tubulin (Lamb brain tubulin [1]): 3.7 fold
- ΔOD ratio (plateau with 8 μM compound divided by plateau of tubulin alone) (Lamb brain tubulin [2]): 3.31
